Data taken from publication PMC9588639 (Journal of thrombosis and haemostasis : JTH, 2022).

B1: recombinant mouse AIM-A1 protein (mouse VWF residues 1238-1493) (domain or fragment, UniProt Q8CIZ8 1238-1493, looked up)
chain: QEPGGLVAPPTDAPVSSTTPYVEDTPEPPLHNFYCSKLLDLVFLLDGSSMLSEAEFEVLKAFVVGMMERLHISQKRIRVAVVEYHDGSRAYLELKARKRPSELRRITSQIKYTGSQVASTSEVLKYTLFQIFGKIDRPEASHITLLLTASQEPPRMARNLVRYVQGLKKKKVIVIPVGIGPHASLKQIRLIEKQAPENKAFLLSGVDELEQRRDEIVSYLCDLAPEAPAPTQPPQVAHVTVSPGIAGISSPGPKRK

Key:
Assay in all cases: BLI
[1] = target: mouse GPIbα LBD (mLBD, residues 1-290) (mouse)
mouse GPIbα LBD (mLBD, residues 1-290) (mouse), sequence (O35930 whole entry, the tested form may be a part): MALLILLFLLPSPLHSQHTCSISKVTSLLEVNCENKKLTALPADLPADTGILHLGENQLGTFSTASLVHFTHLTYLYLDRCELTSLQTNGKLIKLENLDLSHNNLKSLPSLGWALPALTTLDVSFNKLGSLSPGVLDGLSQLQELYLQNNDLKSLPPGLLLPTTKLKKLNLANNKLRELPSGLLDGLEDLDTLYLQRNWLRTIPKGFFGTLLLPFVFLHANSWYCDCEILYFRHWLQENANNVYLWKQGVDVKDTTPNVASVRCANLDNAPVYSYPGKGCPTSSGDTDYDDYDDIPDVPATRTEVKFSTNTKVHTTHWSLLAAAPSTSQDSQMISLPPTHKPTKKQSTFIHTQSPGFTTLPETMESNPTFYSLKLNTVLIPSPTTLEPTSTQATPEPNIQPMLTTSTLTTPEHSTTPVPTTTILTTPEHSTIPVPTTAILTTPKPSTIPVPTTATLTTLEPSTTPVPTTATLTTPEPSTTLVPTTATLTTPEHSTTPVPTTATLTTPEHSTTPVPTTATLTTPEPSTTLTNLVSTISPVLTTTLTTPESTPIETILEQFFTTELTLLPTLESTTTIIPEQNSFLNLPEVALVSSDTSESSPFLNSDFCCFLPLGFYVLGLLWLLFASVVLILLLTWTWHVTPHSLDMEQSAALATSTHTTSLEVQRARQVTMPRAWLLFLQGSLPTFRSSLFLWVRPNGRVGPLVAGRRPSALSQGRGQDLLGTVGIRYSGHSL

[2] = target: human GPIbα LBD (mature protein residues 1-290) W230L (human, UniProt P07359 17-306, W230L)
human GPIbα LBD (mature protein residues 1-290) W230L, sequence (P07359 17-306 W246L): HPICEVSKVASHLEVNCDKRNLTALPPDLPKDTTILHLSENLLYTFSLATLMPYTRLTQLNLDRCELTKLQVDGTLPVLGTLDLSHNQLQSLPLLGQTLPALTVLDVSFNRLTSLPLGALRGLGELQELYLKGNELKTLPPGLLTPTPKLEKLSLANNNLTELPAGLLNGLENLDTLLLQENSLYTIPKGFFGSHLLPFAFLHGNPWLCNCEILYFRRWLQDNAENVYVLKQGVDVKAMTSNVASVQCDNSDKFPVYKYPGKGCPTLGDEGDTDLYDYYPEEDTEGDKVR

[3] = target: human GPIbα LBD (mature protein residues 1-290) (human)

Molecule	Kd [1] [nM]	binding result [2]	Kd [3] [nM]
mouse tAIM-A1 (containing VWF residues 1261-1472) (from UniProt Q8CIZ8 1261-1472) (domain or fragment)	386	–	–
B1	1000	binds	515
